{
  "source": "patent US20230212319A1",
  "about": "“NOVEL ANTIGEN BINDING DOMAINS AND SYNTHETIC ANTIGEN RECEPTORS INCORPORATING THE SAME” (University of Southern California, priority 2020, published 2023)",
  "molecules": {"B1": {"name": "22155 (protein)", "chain": "MALPVTALLLPLALLLHAARPACEVQLLESGGGLIQPGGSLRLSCAASGFTFSSHAMTWVRQAPGKGLEWVSAISGSGDYTHYADSVKGRFTISRDNSKNTVYLQMNSLRAEDSAVYYCAKDEDGGSLLGHRGQGTLVTVSSGTGGGGSGGGGSGGGGSEFSYVLTQPPSVSVAPGQTARITCGGNNIGGKSVHWYQQPPGQAPVVVVYDDSDRPSGIPERFSGSNSGNTATLTISRVEAGDEAVYYCQVWDSSSDHVVFGGGTKLTVLLEADVSPKPTIFLPSIAETKLQKAGTYLCLLEKFFPDVIKIHWQEKKSNTILGSQEGNTMKTNDTYMKFSWLTVPEKSLDKEHRCIVRHENNKNGVDQEIIFPPIKTDVITMDPKDNCSKDANDTLLLQLTNTSAYYMYLLLLLKSVVYFAIITCCLLRRTAFCCNGEKSRAKRSGSGATNFSLLKQAGDVEENPGPTSMDWIWRILFLVGAATGAHSGPQVQLQESGGGLAQAGGSLRLSCAASGRTFSMGWFRQAPGKEREFVAAITYSGGSPYYASSVRGRFTISRDNAKNTVYLQMNSLKPEDTAVYYCAANPTYGSDWNAENWGQGTQVTVSSGSGGGGSGGGGSGGGGSFEQLQLQESGPGLVKPSETLSLTCTVSGGSISSSSYFWGWIRQPPGKGLEWIGSIYYSGITYYNPSLKSRVTISVDTSKNQFSLKLSSVTAADTAVYYCARHDGAVAGLFDYWGQGTLVTVSSATRPHTKPSVFVMKNGTNVACLVKEFYPKDIRINLVSSKKITEFDPAIVISPSGKYNAVKLGKYEDSNSVTCSVQHDNKTVHSTDFEVKTDSTDHVKPKETENTKQPSKSCHKPKAIVHTEKVNMMSLTVLGLRMLFAKTVAVNFLLTAKLFFLRAKRSGSGVKQTLNFDLLKLAGDVESNPGPSRGHMTEYKPTVRLATRDDVPRAVRTLAAAFADYPATRHTVDPDRHIERVTELQELFLTRVGLDIGKVWVADDGAAVAVWTTPESVEAGAVFAEIGPRMAELSGSRLAAQQQMEGLLAPHRPKEPAWFLATVGVSPDHQGKGLGSAVVLPGVEAAERAGVPAFLETSAPRNLPFYERLGFTVTADVEVPEGPRTWCMTRKPGA"}, "B2": {"name": "22207 (protein)", "chain": "MALPVTALLLPLALLLHAARPDIQMTQSPSSLSASVGDRVTITCKASDHINNWLAWYQQKPGQAPKLLIYGATTLETGVPSRFSGSGSGTDYTLTISSLQPEDFATYYCQQSWNTPWTFGQGTKLEIKRLEGQPKANPTVTLFPPSSEELQANKATLVCLISDFYPGAVTVAWKADGSPVKAGVETTKPSKQSNNKYAASSYLSLTPEQWKSHRSYSCQVTHEGSTVEKTVAPTECSPIKTDVITMDPKDNCSKDANDTLLLQLTNTSAYYMYLLLLLKSVVYFAIITCCLLRRTAFCCNGEKSRAKRSGSGATNFSLLKQAGDVEENPGPTSMDWIWRILFLVGAATGAHSFEQVQLQQPGAELVKPGASVKMSCKASGYAFSSYWINWMKQKPGQGLEWIGQIYPGDGDTNYNGKFKGRATLTADTSSSTAYMQLSSLTSEDSAVYFCARSITTVVGCAMDYWGQGTSVTVSSTRSQPHTKPSVFVMKNGTNVACLVKEFYPKDIRINLVSSKKITEFDPAIVISPSGKYNAVKLGKYEDSNSVTCSVQHDNKTVHSTDFEVKTDSTDHVKPKETENTKQPSKSCHKPKAIVHTEKVNMMSLTVLGLRMLFAKTVAVNFLLTAKLFFLRAKRSGSGVKQTLNFDLLKLAGDVESNPGPSRGHMTEYKPTVRLATRDDVPRAVRTLAAAFADYPATRHTVDPDRHIERVTELQELFLTRVGLDIGKVWVADDGAAVAVWTTPESVEAGAVFAEIGPRMAELSGSRLAAQQQMEGLLAPHRPKEPAWFLATVGVSPDHQGKGLGSAVVLPGVEAAERAGVPAFLETSAPRNLPFYERLGFTVTADVEVPEGPRTWCMTRKPGA"}, "B3": {"name": "22103 (protein)", "chain": "MALPVTALLLPLALLLHAARPDIQMTQSPSSLSASVGDRVTITCKASDHINNWLAWYQQKPGQAPKLLIYGATTLETGVPSRFSGSGSGTDYTLTISSLQPEDFATYYCQQSWNTPWTFGQGTKLEIKRLEGQPKANPTVTLFPPSSEELQANKATLVCLISDFYPGAVTVAWKADGSPVKAGVETTKPSKQSNNKYAASSYLSLTPEQWKSHRSYSCQVTHEGSTVEKTVAPTECSPIKTDVITMDPKDNCSKDANDTLLLQLTNTSAYYMYLLLLLKSVVYFAIITCCLLRRTAFCCNGEKSRAKRSGSGATNFSLLKQAGDVEENPGPTSMDWIWRILFLVGAATGAHSFEQVQLQQPGAELVKPGASVKMSCKASGYAFSSYWINWMKQKPGQGLEWIGQIYPGDGDTNYNGKFKGRATLTADTSSSTAYMQLSSLTSEDSAVYFCARSITTVVGCAMDYWGQGTSVTVSSTRASTKGPSVFPLAPSSKSTSGGTAALGCLVKDYFPEPVTVSWNSGALTSGVHTFPAVLQSSGLYSLSSVVTVPSSSLGTQTYICNVNHKPSNTKVDKRVEPKSCEVKTDSTDHVKPKETENTKQPSKSCHKPKAIVHTEKVNMMSLTVLGLRMLFAKTVAVNFLLTAKLFFLRAKRSGSGVKQTLNFDLLKLAGDVESNPGPSRGHMTEYKPTVRLATRDDVPRAVRTLAAAFADYPATRHTVDPDRHIERVTELQELFLTRVGLDIGKVWVADDGAAVAVWTTPESVEAGAVFAEIGPRMAELSGSRLAAQQQMEGLLAPHRPKEPAWFLATVGVSPDHQGKGLGSAVVLPGVEAAERAGVPAFLETSAPRNLPFYERLGFTVTADVEVPEGPRTWCMTRKPGA"}, "B4": {"name": "22205 (protein)", "chain": "MTIRLLCYMGFYFLGAGLMEADIYQTPRYLVIGTGKKITLECSQTMGHDKMYWYQQDPGMELHLIHYSYGVNSTEKGDLSSESTVSRIRTEHFPLTLESARPSHTSQYLCASSEARGLAEFTDTQYFGPGTRLTVLEDLKNVFPPEVAVFEPSEAEISHTQKATLVCLATGFYPDHVELSWWVNGKEVHSGVCTDPQPLKEQPALNDSRYCLSSRLRVSATFWQNPRNHFRCQVQFYGLSENDEWTQDRAKPVTQIVSAEAWGRADCGFTSESYQQGVLSATILYEILLGKATLYAVLVSALVLMAMVKRKDSRGRAKRSGSGATNFSLLKQAGDVEENPGPTSATMDWIWRILFLVGAATGAHSGPQVQLQESGGGLAQAGGSLRLSCAASGRTFSMGWFRQAPGKEREFVAAITYSGGSPYYASSVRGRFTISRDNAKNTVYLQMNSLKPEDTAVYYCAANPTYGSDWNAENWGQGTQVTVSSGSGGGGSGGGGSGGGGSFEQVQLQQPGAELVKPGASVKMSCKASGYAFSSYWINWMKQKPGQGLEWIGQIYPGDGDTNYNGKFKGRATLTADTSSSTAYMQLSSLTSEDSAVYFCARSITTVVGCAMDYWGQGTSVTVSSTRIQNPDPAVYQLRDSKSSDKSVCLFTDFDSQTNVSQSKDSDVYITDKCVLDMRSMDFKSNSAVAWSNKSDFACANAFNNSIIPEDTFFPSPESSCDVKLVEKSFETDTNLNFQNLSVIGFRILLLKVAGFNLLMTLRLWSSRAKRSGSGVKQTLNFDLLKLAGDVESNPGPSRGHMTEYKPTVRLATRDDVPRAVRTLAAAFADYPATRHTVDPDRHIERVTELQELFLTRVGLDIGKVWVADDGAAVAVWTTPESVEAGAVFAEIGPRMAELSGSRLAAQQQMEGLLAPHRPKEPAWFLATVGVSPDHQGKGLGSAVVLPGVEAAERAGVPAFLETSAPRNLPFYERLGFTVTADVEVPEGPRTWCMTRKPGA"}, "B5": {"name": "22117 (protein)", "chain": "MALPVTALLLPLALLLHAARPQLQLQESGPGLVKPSETLSLTCTVSGDSISSGDYYWGWIRQPPGKGLEWIGHIYYSGVTYYNPSLKSRVTISVDTSRNQFSLKLSSVTAADTAVYYCTREDSSNWRSRGQGTLVTVSSLEIQNPDPAVYQLRDSKSSDKSVCLFTDFDSQTNVSQSKDSDVYITDKCVLDMRSMDFKSNSAVAWSNKSDFACANAFNNSIIPEDTFFPSSDVPCDVKLVEKSFETDTNLNFQNLSVIGFRILLLKVAGFNLLMTLRLWSSRAKRSGSGVKQTLNFDLLKLAGDVESNPGPTSTMALPVTALLLPLALLLHAARPQLQLQESGPGLVKPSETLSLTCTVSGDSISSGDYYWGWIRQPPGKGLEWIGHIYYSGVTYYNPSLKSRVTISVDTSRNQFSLKLSSVTAADTAVYYCTREDSSNWRSRGQGTLVTVSSLESGGGGSFEQVQLQQPGAELVKPGASVKMSCKASGYAFSSYWINWMKQKPGQGLEWIGQIYPGDGDTNYNGKFKGRATLTADTSSSTAYMQLSSLTSEDSAVYFCARSITTVVGCAMDYWGQGTSVTVSSTREDLKNVFPPEVAVFEPSKAEIAHTQKATLVCLATGFYPDHVELSWWVNGKEVHSGVCTDPQPLKEQPALNDSRYCLSSRLRVSATFWQNPRNHFRCQVQFYGLSENDEWTQDRAKPVTQIVSAEAWGRADCGITSASYHQGVLSATILYEILLGKATLYAVLVSALVLMAMVKRKDSRGRAKRSGSGATNFSLLKQAGDVEENPGPSRGHMTEYKPTVRLATRDDVPRAVRTLAAAFADYPATRHTVDPDRHIERVTELQELFLTRVGLDIGKVWVADDGAAVAVWTTPESVEAGAVFAEIGPRMAELSGSRLAAQQQMEGLLAPHRPKEPAWFLATVGVSPDHQGKGLGSAVVLPGVEAAERAGVPAFLETSAPRNLPFYERLGFTVTADVEVPEGPRTWCMTRKPGA"}, "B6": {"name": "22182 (protein)", "chain": "MALPVTALLLPLALLLHAARPACEVQLVESGGGVVQPGRSLRLSCAASGFSFSGYGMHWVRQAPGKGLEWVAYISYDGSNKYYADSVKGRFTISRDNSKNTLYLQMNSLRAEDTAVYYCAKDPAWGLRLGESSSYDFDYWGQGTMVTVSSGTGGGGSGGGGSGGGGSEFDIQMTQSPSSLSASVGDRVTITCKASDHINNWLAWYQQKPGQAPKLLIYGATTLETGVPSRFSGSGSGTDYTLTISSLQPEDFATYYCQQSWNTPWTFGQGTKLEIKRLEDLKNVFPPEVAVFEPSEAEISHTQKATLVCLATGFYPDHVELSWWVNGKEVHSGVCTDPQPLKEQPALNDSRYCLSSRLRVSATFWQNPRNHFRCQVQFYGLSENDEWTQDRAKPVTQIVSAEAWGRADCGFTSESYQQGVLSATILYEILLGKATLYAVLVSALVLMAMVKRKDSRGRAKRSGSGATNFSLLKQAGDVEENPGPTSMDWIWRILFLVGAATGAHSFEQVQLQQPGAELVKPGASVKMSCKASGYAFSSYWINWMKQKPGQGLEWIGQIYPGDGDTNYNGKFKGRATLTADTSSSTAYMQLSSLTSEDSAVYFCARSITTVVGCAMDYWGQGTSVTVSSTRIQNPDPAVYQLRDSKSSDKSVCLFTDFDSQTNVSQSKDSDVYITDKCVLDMRSMDFKSNSAVAWSNKSDFACANAFNNSIIPEDTFFPSPESSCDVKLVEKSFETDTNLNFQNLSVIGFRILLLKVAGFNLLMTLRLWSSRAKRSGSGVKQTLNFDLLKLAGDVESNPGPSRGHMTEYKPTVRLATRDDVPRAVRTLAAAFADYPATRHTVDPDRHIERVTELQELFLTRVGLDIGKVWVADDGAAVAVWTTPESVEAGAVFAEIGPRMAELSGSRLAAQQQMEGLLAPHRPKEPAWFLATVGVSPDHQGKGLGSAVVLPGVEAAERAGVPAFLETSAPRNLPFYERLGFTVTADVEVPEGPRTWCMTRKPGA"}},
  "data": [
    {"system": "RAJI cells", "experiment": "JNG assay, co-culture with RAJI cells", "type": "cell-based", "conditions": "JNG cells expressing construct, co-culture with Raji", "outline": "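Jurkat NFAT-GFP (JNG) cells stably transduced with SARs by lentivirus, with drug selection where the construct carried a resistance gene, then co-cultured with target cells at E:T ~1:2 for ~4–18 h. % GFP-positive cells measured by FACS against parental JNG; +/- to 5+ correspond to ~5–50% GFP-positive.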", "values": [
      {"molecule": "B1", "NFAT-GFP ASSAY: Raji": "2+ (refer to approximately 5%, 10%, 20%, 30%, 40% and 50% GFP positive cells)"},
      {"molecule": "B2", "NFAT-GFP ASSAY: Raji": "Raji (5+) (refer to approximately 5%, 10%, 20%, 30%, 40% and 50% GFP positive cells)"},
      {"molecule": "B3", "NFAT-GFP ASSAY: Raji": "4+ (refer to approximately 5%, 10%, 20%, 30%, 40% and 50% GFP positive cells)"},
      {"molecule": "B4", "NFAT-GFP ASSAY: Raji": "Raji (5+) (refer to approximately 5%, 10%, 20%, 30%, 40% and 50% GFP positive cells)"},
      {"molecule": "B5", "NFAT-GFP ASSAY: Raji": "3+ (refer to approximately 5%, 10%, 20%, 30%, 40% and 50% GFP positive cells)"},
      {"molecule": "B6", "NFAT-GFP ASSAY: Raji": "5+ (refer to approximately 5%, 10%, 20%, 30%, 40% and 50% GFP positive cells)"}
    ]}
  ]
}
